# T1: EsCas13d, nuclease-dead (Eubacterium siraeum, UniProt B0MS50, R295A;H300A;R849A;H854A)
# T1 sequence: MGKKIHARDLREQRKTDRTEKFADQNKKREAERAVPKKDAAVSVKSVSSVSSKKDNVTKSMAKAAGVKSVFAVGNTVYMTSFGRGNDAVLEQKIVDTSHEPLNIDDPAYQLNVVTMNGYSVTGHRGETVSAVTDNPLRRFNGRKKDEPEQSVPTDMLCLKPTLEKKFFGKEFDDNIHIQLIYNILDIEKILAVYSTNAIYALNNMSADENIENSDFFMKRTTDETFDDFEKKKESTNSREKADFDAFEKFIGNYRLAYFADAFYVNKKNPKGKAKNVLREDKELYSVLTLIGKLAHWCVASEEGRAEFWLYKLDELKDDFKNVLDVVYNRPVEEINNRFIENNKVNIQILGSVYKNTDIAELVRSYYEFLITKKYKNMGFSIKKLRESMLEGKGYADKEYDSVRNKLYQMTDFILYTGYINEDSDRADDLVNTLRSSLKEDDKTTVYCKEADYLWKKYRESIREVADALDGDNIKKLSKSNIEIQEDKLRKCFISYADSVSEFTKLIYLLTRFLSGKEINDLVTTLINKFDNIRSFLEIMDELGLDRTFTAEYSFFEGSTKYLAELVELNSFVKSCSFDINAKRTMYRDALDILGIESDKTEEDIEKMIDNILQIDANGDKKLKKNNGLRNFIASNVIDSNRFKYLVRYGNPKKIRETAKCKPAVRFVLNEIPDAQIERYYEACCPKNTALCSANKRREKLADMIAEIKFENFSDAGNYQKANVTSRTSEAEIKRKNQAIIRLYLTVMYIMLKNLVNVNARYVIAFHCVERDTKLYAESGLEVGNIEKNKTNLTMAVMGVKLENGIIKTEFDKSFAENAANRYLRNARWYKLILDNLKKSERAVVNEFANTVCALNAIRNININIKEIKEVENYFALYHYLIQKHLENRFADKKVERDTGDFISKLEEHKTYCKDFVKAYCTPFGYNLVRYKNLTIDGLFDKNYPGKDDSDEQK
# Target: T1, EsCas13d, nuclease-dead
# Test: crRNA (strand 1, pre-loaded); Mg2+; 40 mM Tris-HCl pH 7.5, 150 mM NaCl, 6 mM MgCl2, 1 mM DTT, 0.1% Tween-20, 0.2 mg/ml BSA; 25 C; 10 min per concentration, then washed
# Conditions: tags: His6-TwinStrep-SUMO cleaved; N-terminal SNAP kept (SNAP-Surface 488); label: 3' end held by stalled T7 RNA polymerase
binder,measurement,value
"target 1 C2G,G15A (mixed) RNA 1: CACCCGUGCAAAAAUGCAGGGGUCUAAAACUGAGCGGAUAACCUCUCUAUGG RNA 2: GGGAAUGGAUCCACAUCUACGAAUUCGUACCAUAGAAAGGUUAUCCGCUGACCGAGAUCGGAAGAGCACACGU",Kd,14.2 ± 1.5 nM
"target 1 C6A,A9C (mixed) RNA 1: CACCCGUGCAAAAAUGCAGGGGUCUAAAACUGAGCGGAUAACCUCUCUAUGG RNA 2: GGGAAUGGAUCCACAUCUACGAAUUCGUACCAUAGAGAGGUUCUCAGCUCACCGAGAUCGGAAGAGCACACGU",Kd,23 ± 1.5 nM
"target 1 insA 3' of 15,insU 3' of 15 (mixed) RNA 1: CACCCGUGCAAAAAUGCAGGGGUCUAAAACUGAGCGGAUAACCUCUCUAUGG RNA 2: GGGAAUGGAUCCACAUCUACGAAUUCGUACCAUAGAGAUAGGUUAUCCGCUCACCGAGAUCGGAAGAGCACACGU",Kd,15.7 ± 1.2 nM
"target 1 G15C,G17A (mixed) RNA 1: CACCCGUGCAAAAAUGCAGGGGUCUAAAACUGAGCGGAUAACCUCUCUAUGG RNA 2: GGGAAUGGAUCCACAUCUACGAAUUCGUACCAUAAACAGGUUAUCCGCUCACCGAGAUCGGAAGAGCACACGU",Kd,90 ± 40 nM
"target 1 del1,del8 (mixed) RNA 1: CACCCGUGCAAAAAUGCAGGGGUCUAAAACUGAGCGGAUAACCUCUCUAUGG RNA 2: GGGAAUGGAUCCACAUCUACGAAUUCGUACCAUAGAGAGGUUACCGCUCCCGAGAUCGGAAGAGCACACGU",Kd,17.3 ± 1.7 nM
"target 1 insU 3' of 5,insG 3' of 1 (mixed) RNA 1: CACCCGUGCAAAAAUGCAGGGGUCUAAAACUGAGCGGAUAACCUCUCUAUGG RNA 2: GGGAAUGGAUCCACAUCUACGAAUUCGUACCAUAGAGAGGUUAUCCGUCUCAGCCGAGAUCGGAAGAGCACACGU",Kd,7.4 ± 0.6 nM
"target 1 C7U,C22U (mixed) RNA 1: CACCCGUGCAAAAAUGCAGGGGUCUAAAACUGAGCGGAUAACCUCUCUAUGG RNA 2: GGGAAUGGAUCCACAUCUACGAAUUCGUAUCAUAGAGAGGUUAUUCGCUCACCGAGAUCGGAAGAGCACACGU",Kd,14.2 ± 1.3 nM
"target 1 G12U,C22A (mixed) RNA 1: CACCCGUGCAAAAAUGCAGGGGUCUAAAACUGAGCGGAUAACCUCUCUAUGG RNA 2: GGGAAUGGAUCCACAUCUACGAAUUCGUAACAUAGAGAGUUUAUCCGCUCACCGAGAUCGGAAGAGCACACGU",Kd,19.7 ± 1 nM
"target 1 U8A,G15A (mixed) RNA 1: CACCCGUGCAAAAAUGCAGGGGUCUAAAACUGAGCGGAUAACCUCUCUAUGG RNA 2: GGGAAUGGAUCCACAUCUACGAAUUCGUACCAUAGAAAGGUUAACCGCUCACCGAGAUCGGAAGAGCACACGU",Kd,87 ± 23 nM
"target 1 insA 3' of 22,insC 3' of 20 (mixed) RNA 1: CACCCGUGCAAAAAUGCAGGGGUCUAAAACUGAGCGGAUAACCUCUCUAUGG RNA 2: GGGAAUGGAUCCACAUCUACGAAUUCGUACACACUAGAGAGGUUAUCCGCUCACCGAGAUCGGAAGAGCACACGU",Kd,5.9 ± 0.23 nM
"target 1 insA 3' of 22,insC 3' of 18 (mixed) RNA 1: CACCCGUGCAAAAAUGCAGGGGUCUAAAACUGAGCGGAUAACCUCUCUAUGG RNA 2: GGGAAUGGAUCCACAUCUACGAAUUCGUACACAUACGAGAGGUUAUCCGCUCACCGAGAUCGGAAGAGCACACGU",Kd,47 ± 8 nM
"target 1 insU 3' of 13,insA 3' of 8 (mixed) RNA 1: CACCCGUGCAAAAAUGCAGGGGUCUAAAACUGAGCGGAUAACCUCUCUAUGG RNA 2: GGGAAUGGAUCCACAUCUACGAAUUCGUACCAUAGAGAGUGUUAUACCGCUCACCGAGAUCGGAAGAGCACACGU",Kd,14.1 ± 0.7 nM
"target 1 insU 3' of 17,insG 3' of 4 (mixed) RNA 1: CACCCGUGCAAAAAUGCAGGGGUCUAAAACUGAGCGGAUAACCUCUCUAUGG RNA 2: GGGAAUGGAUCCACAUCUACGAAUUCGUACCAUAGUAGAGGUUAUCCGCGUCACCGAGAUCGGAAGAGCACACGU",Kd,14.5 ± 1.3 nM
"target 1 insG 3' of 22,insG 3' of 22 (mixed) RNA 1: CACCCGUGCAAAAAUGCAGGGGUCUAAAACUGAGCGGAUAACCUCUCUAUGG RNA 2: GGGAAUGGAUCCACAUCUACGAAUUCGUACGGCAUAGAGAGGUUAUCCGCUCACCGAGAUCGGAAGAGCACACGU",Kd,34.6 ± 2.2 nM
"target 1 insU 3' of 18,insA 3' of 3 (mixed) RNA 1: CACCCGUGCAAAAAUGCAGGGGUCUAAAACUGAGCGGAUAACCUCUCUAUGG RNA 2: GGGAAUGGAUCCACAUCUACGAAUUCGUACCAUAUGAGAGGUUAUCCGCUACACCGAGAUCGGAAGAGCACACGU",Kd,20.7 ± 0.7 nM
"target 1 insG 3' of 18,insU 3' of 18 (mixed) RNA 1: CACCCGUGCAAAAAUGCAGGGGUCUAAAACUGAGCGGAUAACCUCUCUAUGG RNA 2: GGGAAUGGAUCCACAUCUACGAAUUCGUACCAUAGUGAGAGGUUAUCCGCUCACCGAGAUCGGAAGAGCACACGU",Kd,68 ± 11 nM
"target 1 insA 3' of 11,insG 3' of 9 (mixed) RNA 1: CACCCGUGCAAAAAUGCAGGGGUCUAAAACUGAGCGGAUAACCUCUCUAUGG RNA 2: GGGAAUGGAUCCACAUCUACGAAUUCGUACCAUAGAGAGGUAUAGUCCGCUCACCGAGAUCGGAAGAGCACACGU",Kd,23.7 ± 2 nM
"target 1 insA 3' of 7,insA 3' of 5 (mixed) RNA 1: CACCCGUGCAAAAAUGCAGGGGUCUAAAACUGAGCGGAUAACCUCUCUAUGG RNA 2: GGGAAUGGAUCCACAUCUACGAAUUCGUACCAUAGAGAGGUUAUCACGACUCACCGAGAUCGGAAGAGCACACGU",Kd,7.21 ± 0.35 nM
"target 1 insG 3' of 8,insA 3' of 6 (mixed) RNA 1: CACCCGUGCAAAAAUGCAGGGGUCUAAAACUGAGCGGAUAACCUCUCUAUGG RNA 2: GGGAAUGGAUCCACAUCUACGAAUUCGUACCAUAGAGAGGUUAUGCCAGCUCACCGAGAUCGGAAGAGCACACGU",Kd,13.1 ± 0.8 nM
"target 1 C7A,G13U (mixed) RNA 1: CACCCGUGCAAAAAUGCAGGGGUCUAAAACUGAGCGGAUAACCUCUCUAUGG RNA 2: GGGAAUGGAUCCACAUCUACGAAUUCGUACCAUAGAGAUGUUAUACGCUCACCGAGAUCGGAAGAGCACACGU",Kd,59 ± 21 nM
target 1 C7U (mixed) RNA 1: CACCCGUGCAAAAAUGCAGGGGUCUAAAACUGAGCGGAUAACCUCUCUAUGG RNA 2: GGGAAUGGAUCCACAUCUACGAAUUCGUACCAUAGAGAGGUUAUUCGCUCACCGAGAUCGGAAGAGCACACGU,Kd,7.5 ± 0.4 nM
"target 1 C2U,C6A (mixed) RNA 1: CACCCGUGCAAAAAUGCAGGGGUCUAAAACUGAGCGGAUAACCUCUCUAUGG RNA 2: GGGAAUGGAUCCACAUCUACGAAUUCGUACCAUAGAGAGGUUAUCAGCUUACCGAGAUCGGAAGAGCACACGU",Kd,6 ± 0.4 nM
"target 1 insC 3' of 15,insG 3' of 7 (mixed) RNA 1: CACCCGUGCAAAAAUGCAGGGGUCUAAAACUGAGCGGAUAACCUCUCUAUGG RNA 2: GGGAAUGGAUCCACAUCUACGAAUUCGUACCAUAGAGCAGGUUAUCGCGCUCACCGAGAUCGGAAGAGCACACGU",Kd,17.5 ± 1.2 nM
target 1 complement block 8-10 (mixed) RNA 1: CACCCGUGCAAAAAUGCAGGGGUCUAAAACUGAGCGGAUAACCUCUCUAUGG RNA 2: GGGAAUGGAUCCACAUCUACGAAUUCGUACCAUAGAGAGGUAUACCGCUCACCGAGAUCGGAAGAGCACACGU,Kd,30.9 ± 2.1 nM
"target 1 insC 3' of 18,insA 3' of 2 (mixed) RNA 1: CACCCGUGCAAAAAUGCAGGGGUCUAAAACUGAGCGGAUAACCUCUCUAUGG RNA 2: GGGAAUGGAUCCACAUCUACGAAUUCGUACCAUACGAGAGGUUAUCCGCUCAACCGAGAUCGGAAGAGCACACGU",Kd,28.1 ± 2.6 nM
"target 1 insA 3' of 22,insG 3' of 6 (mixed) RNA 1: CACCCGUGCAAAAAUGCAGGGGUCUAAAACUGAGCGGAUAACCUCUCUAUGG RNA 2: GGGAAUGGAUCCACAUCUACGAAUUCGUACACAUAGAGAGGUUAUCCGGCUCACCGAGAUCGGAAGAGCACACGU",Kd,17.4 ± 1.6 nM
"target 1 del2,del8 (mixed) RNA 1: CACCCGUGCAAAAAUGCAGGGGUCUAAAACUGAGCGGAUAACCUCUCUAUGG RNA 2: GGGAAUGGAUCCACAUCUACGAAUUCGUACCAUAGAGAGGUUACCGCUACCGAGAUCGGAAGAGCACACGU",Kd,10 ± 0.5 nM
"target 1 insG 3' of 8,insA 3' of 5 (mixed) RNA 1: CACCCGUGCAAAAAUGCAGGGGUCUAAAACUGAGCGGAUAACCUCUCUAUGG RNA 2: GGGAAUGGAUCCACAUCUACGAAUUCGUACCAUAGAGAGGUUAUGCCGACUCACCGAGAUCGGAAGAGCACACGU",Kd,11.5 ± 0.5 nM
